According to patent US20130195872A1 (NOVIMMUNE S A, published 2013):
Numbering of substitutions follows the chain as printed. Values belong to the binder of their own block, whether it stands above or below them.

Assays:
human IL-17A homodimer [1] = biological target: T1, human IL-17A homodimer (human, UniProt Q16552 20-155, limits assumed); experiment: cell-based or functional assay
T1 sequence (looked up): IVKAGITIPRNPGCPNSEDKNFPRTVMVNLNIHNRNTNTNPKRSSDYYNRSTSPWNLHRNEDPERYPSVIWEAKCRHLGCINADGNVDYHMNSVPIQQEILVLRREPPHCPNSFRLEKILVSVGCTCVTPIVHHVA

[2] = biological target: T2, human IL-17A/IL-17F heterodimer (human, UniProt Q16552 24-155; Q96PD4 31-163, limits assumed); experiment: cell-based or functional assay
T2 sequence (looked up) 1: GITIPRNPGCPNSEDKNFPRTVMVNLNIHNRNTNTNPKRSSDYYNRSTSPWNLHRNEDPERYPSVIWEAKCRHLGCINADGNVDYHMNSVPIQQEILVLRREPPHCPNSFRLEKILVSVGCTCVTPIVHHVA
T2 sequence (looked up) 2: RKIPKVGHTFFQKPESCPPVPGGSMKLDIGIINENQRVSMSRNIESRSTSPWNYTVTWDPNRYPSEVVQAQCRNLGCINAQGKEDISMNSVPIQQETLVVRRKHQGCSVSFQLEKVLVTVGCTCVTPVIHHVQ

human IL-17A homodimer [3] = biological target: T1, human IL-17A homodimer; experiment: cell-based or functional assay; remark: listed apart in the source
[4] = biological target: T3, cynomolgus IL-17F homodimer (cynomolgus, UniProt G7P4V0 31-163); experiment: FLISA, cytokine on beads
T3 construct: range 31-163; Produced in house in PEAK cells, His-tagged, predominantly disulfide-linked homodimer; also called cyIL-17F; cnIL-17F; not shown: N-terminal His tag
T3 sequence: T2 sequence (looked up) 2 with G22E, I29T, R73K, N74H, V100L, I129V

[5] = biological target: T4, cynomolgus IL-17A homodimer (cynomolgus, UniProt A0A2K5TTB0 20-155); experiment: FLISA, cytokine on beads
T4 construct: Produced in house in PEAK cells, His-tagged, predominantly disulfide-linked homodimer; also called cyIL-17A; cnIL-17A; not shown: N-terminal His tag
T4 sequence: T1 sequence (looked up) with T7A, P12S, N38S, I81V, N82K, P108R

[6] = biological target: T4, cynomolgus IL-17A homodimer; experiment: cell-based or functional assay
[7] = biological target: cynomolgus IL-17A/IL-17F heterodimer (cynomolgus); experiment: cell-based or functional assay
mouse IL-17F homodimer [8] = biological target: T5, mouse IL-17F homodimer (mouse, UniProt Q7TNI7 29-161, limits assumed); experiment: cell-based or functional assay
T5 sequence (looked up): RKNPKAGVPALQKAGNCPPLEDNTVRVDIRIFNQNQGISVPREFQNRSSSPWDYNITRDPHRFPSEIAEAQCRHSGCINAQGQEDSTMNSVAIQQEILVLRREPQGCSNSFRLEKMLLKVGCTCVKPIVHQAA

[9] = biological target: T6, mouse IL-17A/IL-17F heterodimer (mouse, UniProt Q62386 26-158; Q7TNI7 29-161, limits assumed); experiment: cell-based or functional assay
T6 sequence (looked up) 1: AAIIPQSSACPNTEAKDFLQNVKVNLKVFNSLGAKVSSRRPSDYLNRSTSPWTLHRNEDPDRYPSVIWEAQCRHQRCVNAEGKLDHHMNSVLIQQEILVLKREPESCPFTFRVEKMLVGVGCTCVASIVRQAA
T6 sequence (looked up) 2: T5 sequence (looked up)

[10] = biological target: T4, cynomolgus IL-17A homodimer; experiment: cell-based or functional assay; remark: listed apart in the source
human IL-17A homodimer [11] = biological target: T1, human IL-17A homodimer; experiment: SPR Biacore, mAb captured, cytokine as analyte
[12] = biological target: T4, cynomolgus IL-17A homodimer; experiment: SPR Biacore, mAb captured, cytokine as analyte
[13] = biological target: T7, cynomolgus IL-17A/IL-17F heterodimer (cynomolgus); experiment: SPR Biacore, mAb captured, cytokine as analyte
T7 construct: Produced in house in PEAK cells; how the heterodimer was made is not described; also called cyIL-17A-F heterodimer; cynomolgus IL-17A/F

mouse IL-17F homodimer [14] = biological target: T5, mouse IL-17F homodimer; experiment: SPR Biacore, mAb captured, cytokine as analyte
mouse IL-17A homodimer [15] = biological target: T8, mouse IL-17A homodimer (mouse, UniProt Q62386 26-158, limits assumed); experiment: SPR Biacore, mAb captured, cytokine as analyte
T8 construct: Bought recombinant cytokine; also called muIL-17A
T8 sequence (looked up): T6 sequence (looked up) 1

[16] = biological target: T6, mouse IL-17A/IL-17F heterodimer; experiment: SPR Biacore, mAb captured, cytokine as analyte
rat IL-17A homodimer [17] = biological target: T9, rat IL-17A homodimer (rat, UniProt Q61453 18-150, limits assumed); experiment: SPR Biacore, mAb captured, cytokine as analyte
T9 construct: His-tagged, produced in house in PEAK cells; not shown: His tag
T9 sequence (looked up): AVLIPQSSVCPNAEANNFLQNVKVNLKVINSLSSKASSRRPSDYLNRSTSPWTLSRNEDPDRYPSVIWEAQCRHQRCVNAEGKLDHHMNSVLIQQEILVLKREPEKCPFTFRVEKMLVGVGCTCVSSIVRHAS

human IL-17A homodimer [18] = biological target: T1, human IL-17A homodimer; experiment: FLISA, cytokine on beads
[19] = biological target: T3, cynomolgus IL-17F homodimer; experiment: cell-based or functional assay
rat IL-17F homodimer = biological target: T10, rat IL-17F homodimer (rat, UniProt Q5BJ95 29-161); experiment: cell-based or functional assay
T10 sequence (looked up): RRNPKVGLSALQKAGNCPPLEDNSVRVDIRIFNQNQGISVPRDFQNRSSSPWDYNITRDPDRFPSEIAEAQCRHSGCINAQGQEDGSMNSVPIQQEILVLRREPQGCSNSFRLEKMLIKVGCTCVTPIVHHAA

rat IL-17A homodimer [20] = biological target: T9, rat IL-17A homodimer; experiment: cell-based or functional assay
mouse IL-17A homodimer [21] = biological target: T8, mouse IL-17A homodimer; experiment: cell-based or functional assay

B1: 4B11 antibody (antibody, IgG1, V domains shown)
VH: QLQLQESGPGLVKPSETLSLTCAVSDDYISSRSYYWGWIRQPPGKGLEWIGSIYYSGSTYYNPSLKSRVTISVDTSKNQFSLKVSSVTATDTAVYYCARVSGWNGNWFDPWGQGTLVTVSS
VL: not shown
notes: also called 4B11 IgG1
IC50, IL-6 secretion by MEF cells, cytokine at 5 ng/ml (human IL-17A homodimer [1]): 680 nM
IC50, IL-6 secretion by MEF cells, cytokine at 17.5 ng/ml [2]: 810 nM
IC50, IL-6 secretion by HFFF2 human fibroblasts, cytokine at 25 ng/ml (human IL-17A homodimer [3]): > 1000 nM
binding result [4]: binds
binding result [5]: binds

B2: 4H11 antibody (antibody, IgG1, V domains shown)
VH: EVQLVESGGGLVQPGGSLKLSCAASGFTFSGSSMHWVRQASGKGLDWVGRIRSKANSYATAYAASVIGRFTISRDDSKNTAYLQMNSLKTEDTAVYYCTTSVATTLTDYYGMDVWGQGTTVTVSS
VL: EIVLTQSPATLSLSPGERATLSCRASQSVSSYLAWYQQKPGQAPRLLIYDASNRATGIPARFSGSGSGTDFTLTISSLEPEDFAVYYCQQRSNWPPFTFGPGTKVDIK
notes: also called Mab09; 4H11 IgG1
IC50, IL-6 secretion by MEF cells, cytokine at 5 ng/ml (human IL-17A homodimer [1]): 87 nM
IC50, IL-6 secretion by MEF cells, cytokine at 17.5 ng/ml [2]: 810 nM
IC50, IL-6 secretion by HFFF2 human fibroblasts, cytokine at 25 ng/ml (human IL-17A homodimer [3]): 108 nM
binding result [4]: binds
binding result [5]: binds

B3: 15E6FK antibody (antibody, V domains shown)
VH: EVQLVESGGGLVQPGRSLRLSCAASGFTFDDYAMHWVRQAPGKGLEWVSGINWSSGGIGYADSVKGRFTISRDNAKNSLYLQMNSLRAEDTALYYCARDIGGFGEFYWNFGLWGRGTLVTVSS
VL: not shown
notes: kappa light chain (captured by anti-human IgG-kappa); also called mAb 15E6FK; 15E6FK IgG1
IC50, IL-6 secretion by MEF cells, cytokine at 5 ng/ml (human IL-17A homodimer [1]): 0.18 nM
IC50, IL-6 secretion by MEF cells, cytokine at 5 ng/ml [6]: 0.04 nM
IC50, IL-6 secretion by MEF cells, cytokine at 25 ng/ml [7]: 0.08 nM
IC50, IL-6 secretion by MEF cells, cytokine at 50 ng/ml (mouse IL-17F homodimer [8]): > 1000 nM
IC50, IL-6 secretion by MEF cells, cytokine at 50 ng/ml [9]: > 1000 nM
IC50, IL-6 secretion by HFFF2 human fibroblasts, cytokine at 25 ng/ml (human IL-17A homodimer [3]): 0.83 nM
IC50, IL-6 secretion by HFFF2 human fibroblasts, cytokine at 25 ng/ml [10]: 0.76 nM
Kd (human IL-17A homodimer [11]): 0.0117 nM
Kd [12]: 0.0104 nM
Kd [13]: 0.0394 nM
Kd (mouse IL-17F homodimer [14]): 0.236 nM
binding result (mouse IL-17A homodimer [15]): no binding (tested: up to 90 nM cytokine)
Kd [16]: 0.524 nM
binding result (rat IL-17A homodimer [17]): no binding (tested: up to 90 nM cytokine)

B4: 5E12 antibody (antibody, IgG4, V domains shown)
VH: QVQLVQSGGGLVQPGRSLRLSCAASGFTFDDYAMHWVRQAPGKGLEWVSGISWNSGTIGYADSVKGRFTISRDNAKNSLYLQMNSLRAEDTALYYCAKELYISDWDSYSYGMDVWGQGTTVTVSS
VL: not shown
notes: also called Mab05; 5E12 IgG4
IC50, IL-6 secretion by MEF cells, cytokine at 5 ng/ml (human IL-17A homodimer [1]): > 1000 nM
IC50, IL-6 secretion by MEF cells, cytokine at 17.5 ng/ml [2]: > 1000 nM
binding result (human IL-17A homodimer [18]): no binding
binding result [4]: binds

B6: 30D12BF antibody (antibody, V domains shown)
VH: QVQLVQSGAEVKKPGASVKVSCKASGYTFTSYDINWVRQATGQGLEWMGWLNPDSGVIRYAQKFQGRVTMTRDTSISTAYMELSSLRSEDTAVYYCAREWFGELPSYYFYSGMDVWGQGTTVTVSS
VL: EIVLTQSPATLSLSPGERATLSCRASQSVSSYLAWYQQKPGQAPRLLIYDASNRATGIPARFSGSGSGTDFTLTISSLEPEDFAVYYCQQRSNWPPTFGPGTKVDIK
IC50, IL-6 secretion by MEF cells, cytokine at 5 ng/ml (human IL-17A homodimer [1]): 1.6 nM
IC50, IL-6 secretion by MEF cells, cytokine at 17.5 ng/ml [2]: 27 nM
IC50, IL-6 secretion by MEF cells, cytokine at 25 ng/ml [19]: 130 nM
IC50, IL-6 secretion by MEF cells, cytokine at 5 ng/ml [6]: 2.5 nM
IC50, IL-6 secretion by MEF cells, cytokine at 25 ng/ml [7]: 13 nM
IC50, IL-6 secretion by MEF cells, cytokine at 25 ng/ml (rat IL-17F homodimer): 30 nM
IC50, IL-6 secretion by MEF cells, cytokine at 5 ng/ml (rat IL-17A homodimer [20]): > 1000 nM
IC50, IL-6 secretion by HFFF2 human fibroblasts, cytokine at 25 ng/ml (human IL-17A homodimer [3]): 3 nM
IC50, IL-6 secretion by HFFF2 human fibroblasts, cytokine at 25 ng/ml [10]: 5.7 nM

Further lines, results first:

IC50, IL-6 secretion by MEF cells, cytokine at 5 ng/ml (human IL-17A homodimer [1]): > 1000 nM
IC50, IL-6 secretion by MEF cells, cytokine at 17.5 ng/ml [2]: > 1000 nM
binding result (human IL-17A homodimer [18]): no binding
binding result [4]: binds
B5: 41B10 antibody (antibody, IgG4, V domains shown)
VH: not shown
VL: DIQMTQSPSSLSASVGDRVTITCRASQGISSWLAWYQQKPEKAPKSLIYAASSLQSGVPSRFSGSGSGTDFTLTISSLQPEDFATYYCQQYNSYPITFGQGTRLEIK
notes: also called 41B10 IgG4

IC50, IL-6 secretion by MEF cells, cytokine at 5 ng/ml (human IL-17A homodimer [1]): > 1000 nM
IC50, IL-6 secretion by MEF cells, cytokine at 17.5 ng/ml [2]: 910 nM
binding result [4]: binds
binding result [5]: binds
B7: 38B1 antibody (antibody, IgG1, V domains shown)
VH: EVQLVESGGGLVQPGRSLRLSCAASGFTFDDFAMHWVRQAPGKGLEWVSGINWNSGSIGYADSVKGRFTISRDNAKNSLYLQMNSLRAEDTALYYCAKDIAAAGEFYFDMDVWGQGTTVTVSS
VL: B6 VL with P100Q, V104L, D105E
notes: also called 38B1 IgG1

IC50, IL-6 secretion by MEF cells, cytokine at 17.5 ng/ml [2]: 4.4 nM
IC50, IL-6 secretion by MEF cells, cytokine at 50 ng/ml (mouse IL-17F homodimer [8]): 6.2 nM
IC50, IL-6 secretion by MEF cells, cytokine at 5 ng/ml (mouse IL-17A homodimer [21]): > 1000 nM
IC50, IL-6 secretion by MEF cells, cytokine at 50 ng/ml [9]: 170 nM
IC50, IL-6 secretion by MEF cells, cytokine at 25 ng/ml (rat IL-17F homodimer): 0.71 nM
IC50, IL-6 secretion by MEF cells, cytokine at 5 ng/ml (rat IL-17A homodimer [20]): > 1000 nM
IC50, IL-6 secretion by HFFF2 human fibroblasts, cytokine at 25 ng/ml (human IL-17A homodimer [3]): 21 nM
IC50, IL-6 secretion by HFFF2 human fibroblasts, cytokine at 25 ng/ml [10]: 20 nM
B8: 39F12A antibody (antibody, V domains shown)
VH: QVQLVQSGAEVKKPGSSVKVSCKASGGTLSSYAFSWVRQAPGQGLEWMGGIIPFFGTTNYAQKFQGRVIITADESTNTAYMELSGLRSEDTAVYYCARDRDYYGLGSPFYYYGMDVWGQGTTVTVSS
VL: EIVLTQSPDFQSVTPKEKVTITCRASQSIGSSLHWYQQKPDQSPKLLIKYASQSFSGVPSRFSGSGSGTDFTLTINSLEAEDAATYYCHQSSSLPWTFGQGTKVEIK
